Measurements: article PMC9451086

Target: Importin-α1 (UniProt P52292)
Experiment: proximity ligation assay
Conditions: PLC3 cells electroporated with HEV-p6 RNA, 18 h.p.e; 12 fields of cells, mean ± S.D.; parent: est. 5.3; read off a plot

HEV ORF2 capsid protein, wild type (genotype 3 Kernow C-1 p6 strain) P25R; S26R; G27R
response: 4.8 spot/cell

HEV ORF2 capsid protein, wild type (genotype 3 Kernow C-1 p6 strain) R28A; R29A; R30A; R32A; R33A
response: 1.1 spot/cell
